Laboratory results taken from paper PMC11975290, “Two redox-responsive LysR-type transcription factors control the oxidative stress response of Agrobacterium tumefaciens” (Nucleic Acids Research, 2025).

Tests used:
[1] = target: T1, His-ArgP (Escherichia coli (ASKA collection)) (UniProt P0A8S1); experiment: EMSA; conditions: Radioactive EMSA: 20 min at 30 C, 6% polyacrylamide gel, buffer by reference (Müller et al.); ArgP agarose EMSA: 10 mM Tris-HCl pH 8.5, 10 mM MgCl2, 100 mM …
T1 sequence: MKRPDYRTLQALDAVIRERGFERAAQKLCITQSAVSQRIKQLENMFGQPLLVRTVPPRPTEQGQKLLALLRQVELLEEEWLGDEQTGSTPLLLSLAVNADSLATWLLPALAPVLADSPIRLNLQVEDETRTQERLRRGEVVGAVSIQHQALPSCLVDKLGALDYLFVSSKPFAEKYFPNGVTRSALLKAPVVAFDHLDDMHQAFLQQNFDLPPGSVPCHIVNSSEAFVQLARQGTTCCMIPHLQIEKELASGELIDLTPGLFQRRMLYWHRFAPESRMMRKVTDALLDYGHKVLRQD

[2] = target: T2, LsrB-His (Agrobacterium tumefaciens) (UniProt A9CI74); experiment: EMSA; conditions: Radioactive EMSA: 20 min at 30 C, 6% polyacrylamide gel, buffer by reference (Müller et al.); ArgP agarose EMSA: 10 mM Tris-HCl pH 8.5, 10 mM MgCl2, 100 mM …
T2 sequence: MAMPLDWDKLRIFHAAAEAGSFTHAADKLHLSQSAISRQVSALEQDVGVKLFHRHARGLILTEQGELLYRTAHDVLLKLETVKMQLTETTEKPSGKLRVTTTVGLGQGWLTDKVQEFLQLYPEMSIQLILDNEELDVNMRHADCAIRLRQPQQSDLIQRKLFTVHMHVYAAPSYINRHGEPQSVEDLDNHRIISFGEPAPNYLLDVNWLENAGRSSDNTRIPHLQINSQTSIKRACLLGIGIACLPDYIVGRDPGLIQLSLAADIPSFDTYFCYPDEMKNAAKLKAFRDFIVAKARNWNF

[3] = target: the molecule itself; experiment: cryo-EM structure; single-particle cryo-EM of purified LsrB (1.2 mg/ml), without DNA; DNA-binding domain excluded from the analysis; AlphaFold 3 model of the SBD dimer rigid-body fitted into the 3.9 Å map

## CGCTTCTGTGGTTTTAGTTTCGGAAACCATACAAAAATGCTATCCATCTTAAAAATGAGGCGCGATTGTAGCAGACGATTGGCAATCCTTCCGGCAGAAATACACGGTTATAAGACACCTTCATGATCGCCCAGGGATTATAAGTAAAGCAGCCAATCTCTTTTCTGGCGAATGCATGCTGAAGGCGCTGCGTCACGAAATCGACACAGCACCAGCATGTTCTTGTACAGCAACTTAACGCGGCACATTTGCGGGATCGCAATAGTCCAGAAAGCG (double strand) [lysP promoter 276 bp]
[1]
  binding: binds

## GCGGCTAAACGTCTTTTCGCTGGGGATGGCGGAGAAGCCGACAATCCACCTTAGGTTTTGGAGAACACGAAAGATGAAATTTAATCGCAGACATATCGCACTGGCCGCTTTGGTCTCGACGGGCCTGGTCACGCAGGCTTCTGCCGCTGATGATG (double strand) [ampC promoter 155 bp]
[2]
  binding: no binding

B1: LsrB (LysR-type symbiosis regulator B) of Agrobacterium tumefaciens (natural protein)
chain: T2 sequence
notes: LsrB, LysR-type transcriptional regulator of Agrobacterium tumefaciens (atu2186); also called Atu2186; LsrB^His; source: E. coli BL21 (DE3), purified (His-tagged or Strep-tagged; Strep-Tactin resin for the Strep-tagged form)
[3]
  stoichiometry N: 2
